Experimental findings from patent US20090258926A1 (CENTRE NATIONAL DE LA RECHERCHE SCIENTIFIQUE, published 2009) are described below.

In this experiment the target is importin α of the cellular nuclear import machinery (endogenous, in Hs68 human fibroblasts). Briefly: cell-based or functional assay.

As for Ac-GALFLGFLGAAGSTMGAWSQPKKKRKV-cysteamide (not fully specified) [MPG peptide (wild-type MPG), tested as MPG/DNA complex with plasmid], the “luciferase expression after 12 hrs in synchronized Hs68 cells, relative to expression after 48 hrs” value is 65%.
As to Ac-GALFLGFLGAAGSTMGAWSQPKSKRKV-cysteamide (not fully specified) [MPG^ΔNLS peptide, tested as MPG^ΔNLS/DNA complex with plasmid], the “transfection efficiency (luciferase) after 48 hrs relative to MPG” value is 72%.
